Data published in patent US20200317768A1 (published 2020).
Where a chain is given by its changes, count along the chain named.

T1: cynomolgus monkey FcγRIIb extracellular domain, C-terminal His-tag (cynomolgus monkey)
T1 construct: also called cyno FcγRIIb; cynoFcγRIIb; not shown: His-tag added to C-terminus
T1 chain: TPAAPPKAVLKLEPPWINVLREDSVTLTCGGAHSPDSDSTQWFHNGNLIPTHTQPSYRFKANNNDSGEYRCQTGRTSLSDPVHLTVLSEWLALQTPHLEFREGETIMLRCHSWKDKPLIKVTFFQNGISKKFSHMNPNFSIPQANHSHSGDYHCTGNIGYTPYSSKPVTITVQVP

T2: cynomolgus monkey FcγRIIa2 extracellular domain, C-terminal His-tag (cynomolgus monkey)
T2 construct: also called cyno FcγRIIa2; cynoFcgRIIa2; not shown: His-tag added to C-terminus
T2 chain: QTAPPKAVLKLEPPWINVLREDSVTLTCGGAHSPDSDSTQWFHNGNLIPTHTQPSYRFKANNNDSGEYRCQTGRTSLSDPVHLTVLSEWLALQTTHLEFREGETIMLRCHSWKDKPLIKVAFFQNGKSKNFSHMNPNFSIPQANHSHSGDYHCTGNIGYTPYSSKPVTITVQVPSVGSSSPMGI

T3: human FcγRIIaR extracellular domain, C-terminal His-tag (human, UniProt P12318 34-217)
T3 construct: also called human FcγRIIa (type R); FcgRIIaR; not shown: His-tag added to C-terminus
T3 chain: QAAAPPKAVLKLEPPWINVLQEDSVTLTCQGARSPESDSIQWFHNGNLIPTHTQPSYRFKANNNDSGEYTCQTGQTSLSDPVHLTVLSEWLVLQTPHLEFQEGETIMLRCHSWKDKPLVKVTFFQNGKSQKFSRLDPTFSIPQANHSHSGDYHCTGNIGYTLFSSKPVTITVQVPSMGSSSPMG

T4: cynomolgus monkey FcγRIIa3 extracellular domain, C-terminal His-tag (cynomolgus monkey)
T4 construct: also called cyno FcγRIIa3; cynoFcgRIIa3; not shown: His-tag added to C-terminus
T4 chain: T2 chain with K127I, N130K, H133P, Q142R

T5: human FcγRIIaH extracellular domain, C-terminal His-tag (human, UniProt P12318 34-217)
T5 construct: also called human FcγRIIa (type H); FcgRIIaH; not shown: His-tag added to C-terminus
T5 sequence: T3 chain with R134H

T6: human FcγRIIb extracellular domain, C-terminal His-tag (human, UniProt P31994 43-217)
T6 construct: also called FcgRIIb (human); not shown: His-tag added to C-terminus
T6 sequence: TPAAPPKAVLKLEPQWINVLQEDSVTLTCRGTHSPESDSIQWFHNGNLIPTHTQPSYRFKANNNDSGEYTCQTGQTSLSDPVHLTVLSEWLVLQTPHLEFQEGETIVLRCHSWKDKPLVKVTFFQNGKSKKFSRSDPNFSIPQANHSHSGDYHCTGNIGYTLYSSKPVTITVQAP

T7: cynomolgus monkey FcγRIIa1 extracellular domain, C-terminal His-tag (cynomolgus monkey)
T7 construct: also called cyno FcγRIIa1; cynoFcgRIIa1; not shown: His-tag added to C-terminus
T7 chain: T2 chain with T95P, A121T, K127I, S128A, N130K, N135D, Q142R

B1: M103205H795-MY229/M103202L889-SK1 (antibody, human IgG1, kappa)
heavy: QVTLKESGPVLVKPTETLTLTCTVSGIDLSHDDISWVRQAPGKGLEWVGIISYAGSTYYASWAKGRLTISKDTSKNQVVLTMTNMDPVDTATYYCARGVPAYSHGGDLWGQGTLVTVSSASTKGPSVFPLAPSSKSTSGGTAALGCLVKDYFPEPVTVSWNSGALTSGVHTFPAVLQSSGLYSLSSVVTVPSSSLGTQTYICNVNHKPSNTKVDKKVEPKSCDKTHTCPPCPAPELLGYPSVFLFPPKPKDTLMISRTPEVTCVVVDVSDEDPEVKFNWYVDGVEVHNAKTKPREELYNSTYRVVSVLTVLHQDWLNGKEYKCKVSNKALPKPIEKTISKAKGQPREPQVYTLPPSREEMTKNQVSLTCLVKGFYPSDIAVEWESNGQPENNYKTTPKVLDSDGSFFLYSKLTVDKSRWQQGNVFSCSVMHEALHNHYTQKSLSLSP
light: DIVMTQSPATLSLSPGERATLSCTSSQSVYHANWLSWFQQKPGQPPKLLIYWASTLAYGVPSRFSGSGSGTDFTLTISSLQPEDAATYYCAGGYGGGRYAFGQGTKVEIKRTVAAPSVFIFPPSDEQLKSGTASVVCLLNNFYPREAKVQWKVDNALQSGNSQESVTEQDSKDSTYSLSSTLTLSKADYEKHKVYACEVTHQGLSSPVTKSFNRGEC
B2: M103205H795-MY276/M103202L889-SK1 (antibody, human IgG1, kappa)
heavy: B1 heavy with G238I, Y239G, L297Q
light: B1 light
B3: M103205H795-MY271/M103202L889-SK1 (antibody, human IgG1, kappa)
heavy: B1 heavy with G238V, Y239G, L297Q
light: B1 light
B4: M103205H795-MY274/M103202L889-SK1 (antibody, human IgG1, kappa)
heavy: B1 heavy with G238T, Y239G, L297Q
light: B1 light
B5: M103205H795-MY269/M103202L889-SK1 (antibody, human IgG1, kappa)
heavy: B1 heavy with G238M, Y239G, L297Q
light: B1 light
B6: M103205H795-MY278/M103202L889-SK1 (antibody, human IgG1, kappa)
heavy: B1 heavy with G238M, Y239G, K398P
light: B1 light
B7: M103205H795-MY242/M103202L889-SK1 (antibody, human IgG1, kappa)
heavy: B1 heavy with Y239G, P240I, L297Q
light: B1 light
B8: M103205H795-MY270/M103202L889-SK1 (antibody, human IgG1, kappa)
heavy: B1 heavy with G238H, Y239G, L297Q
light: B1 light
B9: M103205H795-MY272/M103202L889-SK1 (antibody, human IgG1, kappa)
heavy: B1 heavy with G238Q, Y239G, L297Q
light: B1 light
B10: M103205H795-MY273/M103202L889-SK1 (antibody, human IgG1, kappa)
heavy: B1 heavy with G238L, Y239G, L297Q
light: B1 light

biological target: T8, human FcγRIIIaV extracellular domain, C-terminal His-tag (human, UniProt P08637 17-208); experiment: SPR (Biacore), KD of SG1 / KD of variant;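 also: relative to parent M103205H795-SG1 carrying the SG1 human heavy chain constant region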
T8 construct: also called FcgRIIIaV; not shown: His-tag added to C-terminus
T8 sequence (P08637 17-208 F176V): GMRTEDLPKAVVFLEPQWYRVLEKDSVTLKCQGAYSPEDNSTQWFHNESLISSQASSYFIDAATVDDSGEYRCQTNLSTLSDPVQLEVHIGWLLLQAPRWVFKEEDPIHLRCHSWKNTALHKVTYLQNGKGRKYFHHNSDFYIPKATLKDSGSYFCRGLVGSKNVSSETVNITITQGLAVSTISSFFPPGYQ
Experimental: (§1) The kinetic analysis of interactions between these antibodies and FcγR was carried out using BIACORE® T200 or BIACORE® 4000 (GE Healthcare). HBS-EP+ (GE Healthcare) was used as the running buffer, and the measurement temperature was set to 25° C. A chip produced by immobilizing Protein A. Protein A/G or mouse anti-human IgG kappa light chain (BD Biosciences) onto a Series S Sensor Chip CM4 or CM5 (GE Healthcare) by the amine-coupling method was used. […] After the measurement, the antibody captured on the chip was washed off by allowing reaction with 10 mM glycine-HCl, pH1.5 and 25 mM NaOH so that the chip was regenerated and used repeatedly. The sensorgrams obtained as measurement results were analyzed by the 1:1 Langmuir binding model using the BIACORE® Evaluation Software to calculate the binding rate constant ka (L/mol/s) and dissociation rate constant kd (l/s), and the dissociation constant KD (mol/L) was calculated from these values. […] Regarding such interactions, KD values were calculated using the following 1:1 binding model described in BIACORE® T100 Software Handbook BR1006-48 Edition AE.
(§2) The behavior of interacting molecules according to the 1:1 binding model on BIACORE® can be described by Equation 1: Req=C·R max/(KD+C)+RI, wherein, Req is a plot of steady-state binding levels to analyte concentration. C is concentration, RI is bulk refractive index contribution in the sample, and Rmax is analyte binding capacity of the surface. When this equation is rearranged, KD can be expressed as Equation 2: KD=C·Rmax/(Req−RI)−C. KD can be calculated by substituting the values of Rmax, RI, and C into Equation 1 or Equation 2. From the current measurement conditions, RI=0, C=2 μmol/L can be used.

Row | KD fold (SG1 = 1) [fold] | Binder
1 | 0.02 | B1
2 | 0.14 | B2
3 | 0.35 | B3
4 | 0.33 | B4
5 | 0.74 | B5
6 | 0.24 | B6
7 | 0.25 | B7
8 | 0.22 | B8
9 | 0.93 | B9
10 | 0.08 | B10

Biological target: T1, cynomolgus monkey FcγRIIb extracellular …
Experiment: SPR (Biacore), KD of SG1 / KD of variant;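 also: relative to parent M103205H795-SG1 carrying the SG1 human heavy chain constant region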
Experimental: as §1, §2

Row | KD fold (SG1 = 1) [fold] | Binder
11 | 3.8 | B1
12 | 5.3 | B2
13 | 9.5 | B3
14 | 7.8 | B4
15 | 2.8 | B5
16 | 1.6 | B6
17 | 1.6 | B7
18 | 3.4 | B8
19 | 4.2 | B9
20 | 1.5 | B10

Biological target: T2, cynomolgus monkey FcγRIIa2 …
Experiment: SPR (Biacore), KD of SG1 / KD of variant;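 also: relative to parent M103205H795-SG1 carrying the SG1 human heavy chain constant region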
Experimental: as §1, §2

Row | KD fold (SG1 = 1) [fold] | Binder
21 | 2.3 | B1
22 | 4.6 | B2
23 | 7.3 | B3
24 | 6.4 | B4
25 | 2 | B5
26 | 1.4 | B6
27 | 1.2 | B7
28 | 2.4 | B8
29 | 2.7 | B9
30 | 1.5 | B10

Biological target: T3, human FcγRIIaR extracellular domain, …
Experiment: SPR (Biacore), KD of SG1 / KD of variant;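 also: relative to parent M103205H795-SG1 carrying the SG1 human heavy chain constant region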
Experimental: as §1, §2

Row | KD fold (SG1 = 1) [fold] | Binder
31 | 13 | B1
32 | 4.4 | B2
33 | 4.8 | B3
34 | 6.5 | B4
35 | 1.5 | B5
36 | 0.7 | B6
37 | 1.7 | B7
38 | 3.1 | B8
39 | 4.4 | B9
40 | 1.1 | B10

Biological target: T4, cynomolgus monkey FcγRIIa3 …
Experiment: SPR (Biacore), KD of SG1 / KD of variant
Experimental: as §1, §2

Row | KD fold (SG1 = 1) [fold] | Binder
41 | 8.5 | B1
42 | 3.8 | B2
43 | 3.5 | B3
44 | 8.5 | B4
45 | 2.7 | B5
46 | 1.7 | B6
47 | 2.9 | B7
48 | 6.5 | B8
49 | 2.7 | B9
50 | 1.5 | B10

biological target: T5, human FcγRIIaH extracellular domain, …; experiment: SPR (Biacore), KD of SG1 / KD of variant
Experimental: as §1, §2

Row | KD fold (SG1 = 1) [fold] | Binder
51 | 0.7 | B1
52 | 13 | B2
53 | 15.7 | B3
54 | 8.3 | B4
55 | 2.3 | B5
56 | 1.3 | B6
57 | 0.8 | B7
58 | 9.5 | B8
59 | 7.5 | B9
60 | 1.4 | B10

biological target: T6, human FcγRIIb extracellular domain, …; experiment: SPR (Biacore), KD of SG1 / KD of variant
Experimental: as §1, §2

Row | KD fold (SG1 = 1) [fold] | Binder
61 | 30.7 | B1
62 | 1.9 | B2
63 | 2.2 | B3
64 | 4.8 | B4
65 | 2.2 | B5
66 | 1 | B6
67 | 2.4 | B7
68 | 1.3 | B8
69 | 3.5 | B9
70 | 0.9 | B10

Biological target: T7, cynomolgus monkey FcγRIIa1 …
Experiment: SPR (Biacore), KD of SG1 / KD of variant
Experimental: as §1, §2

Row | KD fold (SG1 = 1) [fold] | Binder
71 | 2 | B1
72 | 2.9 | B2
73 | 4.7 | B3
74 | 3.6 | B4
75 | 1.4 | B5
76 | 1.1 | B6
77 | 0.7 | B7
78 | 1.8 | B8
79 | 1.9 | B9
80 | 0.8 | B10

biological target: T6, human FcγRIIb extracellular domain, …; experiment: SPR (Biacore), antibody captured, FcgR analyte, 25 C

Row | Kd [nM] | Binder
81 | 150 | B1
82 | 2400 | B2
83 | 2100 | B3
84 | 950 | B4
85 | 2100 | B5
86 | 4400 | B6
87 | 1900 | B7
88 | 2500 | B8
89 | 1200 | B9
90 | 3000 | B10
